Data published in the supplement of paper PMC10724198.
± gives the standard deviation of the averaged measurements.

system: Saccharomyces cerevisiae; test: protein stability index of tFT-peptide fusion (C-terminal peptide) (PSI (0-1 scale)); higher = more stable (slower turnover); conditions: genetic background: wild type; temperature: 30 C
Method: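 Multiplexed protein stability (MPS) profiling in S. cerevisiae. Random 12-aa peptides (tFT-X12 library) are fused to the C-terminus of a sfGFP-mCherry tandem fluorescent timer, after mCherry and a GGGS linker. Cells are FACS-sorted into 8 mCherry/sfGFP bins and deep-sequenced. The protein stability index (PSI) is the read-weighted bin average, scaled from 0 (unstable) to 1 (stable). Only peptides with >10 reads are reported; cells were grown at 30 °C in SC-His with glucose.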
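Also: PSI is a weighted mean of sequencing reads over stability bins, variants kept only with over 10 reads, mCherry proximal and sfGFP distal, peptide attached via GGGS linker.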

Row | Sequence | protein stability index
1 | FCFFGRPCLSSV | 0.714 ± 0.14
2 | FCKTKVRDKATR | 0.73 ± 0.035
3 | FCLLPPFPFFRS | 0.661 ± 0.022
4 | FCLSPGYHSQLC | 0.692 ± 0.023
5 | FCTDFDTLCREC | 0.647 ± 0.021
6 | FCVFSFAAPGFP | 0.6746 ± 0.00074
7 | FCWRDIICAFFR | 0.72 ± 0.019
8 | FCWSFGVLLSFS | 0.559 ± 0.0099
9 | FDCTSCIPFRFL | 0.679 ± 0.035
10 | FDLLSVGRARSW | 0.716 ± 0.036
11 | FDSLFVSLSFAI | 0.661 ± 0.03
12 | FFAPPSSPSFSR | 0.822 ± 0.063
13 | FFDFCACICTFF | 0.655 ± 0.045
14 | FFGSFVFSLLFY | 0.6025 ± 0.0047
15 | FFLLPHPSRFFP | 0.734 ± 0.025
16 | FFLSDDALVYNH | 0.788 ± 0.065
17 | FFLWSLLGGLPC | 0.661 ± 0.02
18 | FFPLSALFARPS | 0.676 ± 0.0073
19 | FFPQLRPNSSTS | 0.724 ± 0.042
20 | FFRFLLPFLPPS | 0.70866 ± 0.0006
21 | FFSPPLPPAPLT | 0.775 ± 0.057
22 | FFSVCLVFGLPG | 0.543 ± 0.013
23 | FFTDACQRVMKG | 0.633 ± 0.049
24 | FFWFIASTNFSS | 0.609 ± 0.015
25 | FGAFCSWLLLHS | 0.61 ± 0.026

Row | Sequence | protein stability index
26 | FGCDCFCPFCLR | 0.706 ± 0.019
27 | FGDTYICKPFWG | 0.765 ± 0.033
28 | FGESPWARVGGG | 0.5749 ± 0.005
29 | FGFSAVCFGNLC | 0.6729 ± 0.0024
30 | FGGSFEGRGRYY | 0.737 ± 0.018
31 | FGTVIEVVCGVM | 0.5277 ± 0.0014
32 | FGVGSITDEELD | 0.735 ± 0.036
33 | FGYEPVSLRAEF | 0.675 ± 0.029
34 | FILSPGHFHRVL | 0.688 ± 0.076
35 | FILTSLPSLCFP | 0.696 ± 0.04
36 | FILWSLIMGPYA | 0.522 ± 0.019
37 | FIPGGPSGFCFR | 0.669 ± 0.075
38 | FIVGIQTKPVKL | 0.661 ± 0.11
39 | FKFCLRSESSSE | 0.66 ± 0.085
40 | FKIFSGLVTLGG | 0.7337 ± 0.0036
41 | FKKTSRHTINRK | 0.757 ± 0.023
42 | FKNVTGWLFFCR | 0.702 ± 0.064
43 | FKTLIRKEQESE | 0.754 ± 0.013
44 | FLCLLPLRLFGI | 0.603 ± 0.021
45 | FLDFLFLLVPSV | 0.554 ± 0.019
46 | FLDTSSYFMFAS | 0.7123 ± 0.007
47 | FLFCLLGSFRSF | 0.5829 ± 0.004
48 | FLGEKTCRSIIS | 0.646 ± 0.083
49 | FLGFGGAWSWGG | 0.766 ± 0.16
50 | FLHVSLSFSCSL | 0.541 ± 0.0063

Row | Sequence | protein stability index
51 | FLLPQLFVSSSF | 0.699 ± 0.035
52 | FLLSVVQGAVHQ | 0.6 ± 0.036
53 | FLLVPSPPSFTH | 0.715 ± 0.12
54 | FLPCPPSPPSPR | 0.765 ± 0.06
55 | FLPQCLGSNFHL | 0.725 ± 0.016
56 | FLRLVRIPNQVQ | 0.6531 ± 0.0014
57 | FLSRPIGAAIWA | 0.543 ± 0.026
58 | FLSYPFLSRPFL | 0.804 ± 0.058
59 | FLTSTLVSSGGD | 0.676 ± 0.034
60 | FLTVDGKLMRGP | 0.699 ± 0.021
61 | FLVCFPFALFGA | 0.495 ± 0.052
62 | FLYELGTTSSPR | 0.73 ± 0.025
63 | FLYPPAHPLLPP | 0.7 ± 0.024
64 | FMPRPSNRLSPS | 0.723 ± 0.0078
65 | FNGAISESGLPT | 0.664 ± 0.053
66 | FNIPYLVQATGD | 0.676 ± 0.09
67 | FNTCCQNTWKVK | 0.677 ± 0.15
68 | FPAPPPPPRPAS | 0.69 ± 0.033
69 | FPFCAFPPSPTC | 0.75 ± 0.038
70 | FPFLAPSLVLPT | 0.569 ± 0.012
71 | FPFPTLSDLRPT | 0.698 ± 0.036
72 | FPGLHVNHPAWP | 0.688 ± 0.027
73 | FPHPPPSLPSPR | 0.789 ± 0.064
74 | FPHSPPFRLPLS | 0.759 ± 0.089
75 | FPLHPLLTSISL | 0.68 ± 0.032

Row | Sequence | protein stability index
76 | FPLHSSLSGPPC | 0.737 ± 0.0083
77 | FPLLGRCCRAVQ | 0.682 ± 0.043
78 | FPLPHVIPSPAS | 0.559 ± 0.022
79 | FPLPLPVLSSPS | 0.646 ± 0.15
80 | FPLSFLLDLLLV | 0.509 ± 0.013
81 | FPLTKASSPSLL | 0.672 ± 0.073
82 | FPLVPPPSSPLF | 0.687 ± 0.022
83 | FPPAHPPPCLPP | 0.6473 ± 0.003
84 | FPPPLPLLSPLP | 0.671 ± 0.079
85 | FPPPPPPPPPSP | 0.723 ± 0.028
86 | FPPPPPVPPPLS | 0.723 ± 0.047
87 | FPPPPRPSSPLL | 0.693 ± 0.024
88 | FPPPPYPEFYPC | 0.798 ± 0.077
89 | FPPSDPAPTLPP | 0.749 ± 0.088
90 | FPRFGRGVGRRT | 0.67 ± 0.0073
91 | FPRPSLPFPPHR | 0.609 ± 0.00064
92 | FPRRLLPLSPPP | 0.704 ± 0.015
93 | FPRRPSPGPLIS | 0.678 ± 0.035
94 | FPSCVLGGWYCG | 0.7114 ± 0.0016
95 | FPSPSLSSLPPL | 0.725 ± 0.058
96 | FQCLPHGFYFGA | 0.661 ± 0.0098
97 | FQFSFLRFGGCA | 0.651 ± 0.048
98 | FQLFLPPFRLPP | 0.801 ± 0.18
